{"source": "paper PMC10095280", "key": {"β-arrestin2 [1]": {"molecular_target": "β-arrestin2 (UniProt P32121)", "test": "direct BRET, D1R-Rluc8 and β-arrestin2-mVenus", "settings": "reference: wild type"}, "β-arrestin2 [2]": {"molecular_target": "β-arrestin2 (UniProt P32121)", "test": "bystander BRET, β-arrestin2-Rluc2 to membrane GFP-CAAX", "settings": "for percent of reference: reference: wild type"}, "β-arrestin2 [3]": {"molecular_target": "β-arrestin2 (UniProt P32121)", "test": "β-arrestin recruitment BRET, type not stated", "settings": "reference: wild type; sites S417,S421,T428,S431,T439,S441,S445,T446"}, "[4]": {"settings": "sites S256,S258,S259,T360,S362,S372,S373,S380,T428,S431,T439,S441,S445,T446"}}}
{"substance": "D1 dopamine receptor (D1R) (from UniProt P18901) GRK-null (14 GRK sites mutated)", "values": [{"measurement": "percent of reference", "setting": "β-arrestin2 [1]; [4]", "result": "lost; reference 100"}, {"measurement": "percent of reference", "setting": "β-arrestin2 [2]; [4]", "result": "lost; reference 100"}]}
{"substance": "D1 dopamine receptor (D1R) (from UniProt P18901) PKC-null", "values": [{"measurement": "other: Emax, % of WT D1R", "setting": "β-arrestin2 [2]; reference: PKC-null + A259S (S259 restored), sites S259", "result": "same; reference 59 ± 9.4"}]}
{"substance": "D1 dopamine receptor (D1R) (from UniProt P18901) PKC-null (S259A/S397A/S398A/S417A/S421A)", "values": [{"measurement": "percent of reference", "setting": "β-arrestin2 [2]; sites S259,S397,S398,S417,S421", "result": "weaker; reference 100"}]}
{"substance": "D1 dopamine receptor (D1R) (from UniProt P18901) S2/S3/S4 mutant (S256A/S258A/S259A)", "values": [{"measurement": "percent of reference", "setting": "β-arrestin2 [2]; sites S256,S258,S259", "result": "weaker; reference 100"}]}
{"substance": "D1 dopamine receptor (D1R) (from UniProt P18901) S6A (S362A)", "values": [{"measurement": "percent of reference", "setting": "β-arrestin2 [1]; sites S362", "result": "weaker; reference 100"}]}
{"substance": "D1 dopamine receptor (D1R) (from UniProt P18901) S13–S20 mutant (8 distal C-terminal S/T mutated)", "values": [{"measurement": "percent of reference", "setting": "β-arrestin2 [3]", "result": "weaker; reference 100"}]}
{"substance": "D1 dopamine receptor (D1R) (from UniProt P18901) T5V (T360V)", "values": [{"measurement": "percent of reference", "setting": "β-arrestin2 [1]; sites T360", "result": "weaker; reference 100"}]}
{"substance": "D1 dopamine receptor (D1R) (from UniProt P18901) T5V/S6A (T360V/S362A)", "values": [{"measurement": "percent of reference", "setting": "β-arrestin2 [1]; sites T360,S362", "result": "weaker; reference 100"}, {"measurement": "percent of reference", "setting": "β-arrestin2 [2]; sites T360,S362", "result": "weaker; reference 100"}]}
{"substance": "D1 dopamine receptor (D1R) (from UniProt P18901) Tail Total (all 20 C-terminal S/T mutated)", "values": [{"measurement": "percent of reference", "setting": "β-arrestin2 [1]; sites S342,T343,T353,T354,T360,S362,S372,S373,S380,S382,S397,S398,S417,S421,T428,S431,T439,S441,S445,T446", "result": "weaker; reference 100"}]}
{"substance": "D1 dopamine receptor (D1R) T1 truncation, stop after 370 (from UniProt P18901) D1R T1 + T5V/S6A", "values": [{"measurement": "other: Emax, % of full-length WT D1R", "setting": "β-arrestin2 [2]; reference: D1R T1 truncation, sites T360,S362", "result": "weaker; reference 112 ± 5.1"}]}
